Here are results for two substances from publication PMC3536657.

Experiment [1] addresses b12 chimeric IgG, germline heavy chain paired with the mature light chain (human). Put plainly: BLI; antibody-capture kinetics: IgG on biosensors, 2-fold serial dilutions of Env; mean of curves with R^2 >= 0.95.
Experiment [2] deals with b12 chimeric IgG, mature heavy chain paired with the germline light chain (human). Described as above.
The target in another experiment is mature IgG b12 (human). Described as above.
The target in experiment [3] is HXB2 gp120 (HIV-1 clade B, isolate HXB2) (UniProt P04578).
For experiment [4], the target named is QH0692 gp120 (HIV-1 (clade B, isolate QH0692)).

Sequence of mature IgG b12 (human) (heavy, as listed by the source, chain 1 of 2): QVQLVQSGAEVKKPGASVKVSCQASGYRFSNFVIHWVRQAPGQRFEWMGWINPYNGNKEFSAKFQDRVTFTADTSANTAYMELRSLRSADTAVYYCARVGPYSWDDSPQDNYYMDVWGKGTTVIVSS
Sequence of mature IgG b12 (human) (light, as listed by the source, chain 2 of 2): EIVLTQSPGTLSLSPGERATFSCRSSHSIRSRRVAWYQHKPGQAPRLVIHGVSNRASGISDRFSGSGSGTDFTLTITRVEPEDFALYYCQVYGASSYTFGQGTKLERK
Sequence of b12 chimeric IgG, mature heavy chain paired with the germline light chain (human) (light, as listed by the source, chain 2 of 2): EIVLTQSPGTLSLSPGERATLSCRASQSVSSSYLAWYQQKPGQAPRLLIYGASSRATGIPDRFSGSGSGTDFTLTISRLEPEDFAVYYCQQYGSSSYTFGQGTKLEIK
Sequence of b12 chimeric IgG, germline heavy chain paired with the mature light chain (human) (heavy, as listed by the source, chain 1 of 2): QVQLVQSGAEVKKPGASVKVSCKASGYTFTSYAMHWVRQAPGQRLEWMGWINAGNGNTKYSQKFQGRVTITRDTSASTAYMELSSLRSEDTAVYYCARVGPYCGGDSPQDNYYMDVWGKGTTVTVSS

Consider QH0692 gp120 (natural protein), for which the Ka in experiment [1] amounted to 1.39e+07 M⁻¹; in experiment [2], 7.56e+06 M⁻¹; with mature IgG b12 (human), 2e+09 M⁻¹. In addition, the Kd in the experiment with mature IgG b12 (human) was found to be 2 nM.

For mature IgG b12 (antibody), the neutralisation of HXB2 virions (luciferase reporter cells), IC50 in experiment [3] was 0.002 µg/mL. In addition, the neutralisation of QH0692 virions (luciferase reporter cells), IC50 in experiment [4] came out at 0.22 µg/mL.
